Experimental data reported in patent US10513545B2, “Fusion polypeptide in which anti-inflammatory polypeptide and ferritin monomer fragment are bound and pharmaceutical composition for preventing and treating inflammatory diseases, containing same as active ingredient” (KYUNGPOOK NATIONAL UNIVERSITY INDUSTRY-ACADEMIC COOPERATION …, priority 2015, dated 2019).
Like-named read-outs stand apart in the source and are kept apart here.

Assays:
PAR-1 = PAR-1 cleavage assay in transfected HUVECs (ALP activity); type: cell-based; settings: FIG. 13
Protocol: HUVECs at 90% confluence in 24-well plates were transiently transfected with pRc/RSV containing ALP-PAR-1-TF cDNA in antibiotic-free Opti-MEM medium using Lipofectamine (Invitrogen) according to the manufacturer's instruction. On the following day, cells were washed and incubated in serum-free medium for 5 h. Cells were then incubated for an additional hour with thrombin, TRAP, TFG, or TFMG. Conditioned medium was collected and centrifuged to remove cellular debris. Supernatant was collected, and ALP (alkaline phosphatase) activity was measured using EnzoLyte™ p-nitrophenyl phosphate alkaline phosphatase assay kit (AnaSpec, San Jose, Calif.) according to the manufacturer's instructions.

soluble EPCR (sEPCR) [1] = target: T1, soluble EPCR (sEPCR) (Homo sapiens, UniProt Q9UNN8); settings: in an aqueous solution; read-out: previously reported binding affinity for PC to sEPCR; cited from earlier work
T1 construct: 96-well flat microtiter plates were coated with soluble EPCR
T1 sequence (Q9UNN8 18-210 limits assumed): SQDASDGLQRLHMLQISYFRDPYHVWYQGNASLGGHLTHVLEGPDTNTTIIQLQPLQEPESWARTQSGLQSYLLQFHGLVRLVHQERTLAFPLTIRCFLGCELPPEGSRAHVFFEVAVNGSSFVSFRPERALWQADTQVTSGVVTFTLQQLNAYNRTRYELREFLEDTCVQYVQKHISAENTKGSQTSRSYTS

soluble EPCR (sEPCR) [2] = target: T1, soluble EPCR (sEPCR); experiment: solid-phase ELISA for binding affinity to soluble EPCR; settings: FIG. 9, read-out: Kd(app) for the interaction with sEPCR
Protocol: 9. Enzyme-Linked Immunosorbent Assays (ELISA) for Evaluating EPCR (Endothelial Protein C Receptor) Binding Affinity
To evaluate the interaction of the wild-type PC, PC-Gla peptides, TFG, and TFMG with EPCR, 96-well flat microtiter plates were coated with soluble EPCR in 20 mM carbonate-bicarbonate buffer (pH 9.6) containing 0.02% sodium azide, overnight at 4° C. After the plates were washed three times in TBS buffer (0.1 M NaCl, 0.02 M Tris-HCl, pH 7.4) containing 0.05% Tween 20, the plates were incubated with wild-type PC, PC-Gla peptides, TFG, and TFMG (7-1000 nM) diluted in the buffer for 1 h. After the plates were rinsed again, they were incubated with a goat anti-protein C polyclonal antibody (1:1000) for 1 h. Then, the plates were washed and incubated with rabbit anti-goat IgG (KPL, MD, 1:1000) for 1 h. After washing, the plates were incubated with 2,2′-azino-di(3-ethylbenzthiazoline-6-sulfonate) (ABTS; KPL, Gaithersburg, Md.). Colorimetric analysis was performed by measuring absorbance values at 405 nm.

Row | Substance | PAR-1 cleavage activity (ability to activate PAR-1) (PAR-1) | Kd (soluble EPCR (sEPCR) [1]) | Kd (soluble EPCR (sEPCR) [2])
1 | TRAP peptides: thrombin receptor agonist peptide TFLLRN (SEQ ID NO: 3), activates PAR-1 (Thrombin receptor agonist peptide (TRAP)) [reference compound] | strong similarities |  | 
2 | wild type PC: wild-type Protein C, comparator in the EPCR binding ELISA [reference compound] |  | 0.029 µM | ~0.0313 µM
